Assay results: the supplement of paper PMC10065799, “High-throughput profiling of sequence recognition by tyrosine kinases and SH2 domains using bacterial peptide display” (eLife, 2023)

Columns and labels:
FGFR1 = FGFR1 (UniProt P11362); test: phosphorylation enrichment, bacterial display (enrichment ratio); higher = better substrate or ligand; peptides without Tyr show the background
Jak2 = Jak2 (UniProt O60674); test: as above
FGFR3 = FGFR3 (UniProt P22607); test: as above
c-Src = test: as above
EPHB2 = EPHB2 (UniProt P29323); test: as above
Hck = Hck (UniProt P08631); test: as above
MERTK = MERTK (UniProt Q12866); test: as above
c-Abl (mouse) = test: as above
Fer (mouse) = test: as above
Fyn = Fyn (UniProt P06241); test: as above
EPHB1 = EPHB1 (UniProt P54762); test: as above
AncSZ = test: as above
Fes = Fes (UniProt P07332); test: as above
Grb2 SH2 = Grb2 SH2 (UniProt P62993); test: SH2 binding enrichment of the phosphorylated peptide, bacterial display (enrichment ratio); higher = better substrate or ligand; peptides without Tyr show the background
SHP2-C SH2 = test: as above
c-Src SH2 = test: as above
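Wherever SH2 binding enrichment of the phosphorylated peptide, bacterial display is given: peptide library displayed on the E. coli surface as eCPX fusions, selected cells deep-sequenced, score is each peptide's frequency after selection divided by its frequency in the input.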
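Wherever phosphorylation enrichment, bacterial display is given: 11-residue human phosphosite peptides and single-mutation variants displayed on the E. coli surface, counted by deep sequencing, each peptide's frequency after selection divided by its frequency in the unselected input library; frequency after pTyr selection over input frequency; kinase dosed for 20-30% of maximal phosphorylation in three min.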

Chain of Fes (P07332 whole entry, looked up): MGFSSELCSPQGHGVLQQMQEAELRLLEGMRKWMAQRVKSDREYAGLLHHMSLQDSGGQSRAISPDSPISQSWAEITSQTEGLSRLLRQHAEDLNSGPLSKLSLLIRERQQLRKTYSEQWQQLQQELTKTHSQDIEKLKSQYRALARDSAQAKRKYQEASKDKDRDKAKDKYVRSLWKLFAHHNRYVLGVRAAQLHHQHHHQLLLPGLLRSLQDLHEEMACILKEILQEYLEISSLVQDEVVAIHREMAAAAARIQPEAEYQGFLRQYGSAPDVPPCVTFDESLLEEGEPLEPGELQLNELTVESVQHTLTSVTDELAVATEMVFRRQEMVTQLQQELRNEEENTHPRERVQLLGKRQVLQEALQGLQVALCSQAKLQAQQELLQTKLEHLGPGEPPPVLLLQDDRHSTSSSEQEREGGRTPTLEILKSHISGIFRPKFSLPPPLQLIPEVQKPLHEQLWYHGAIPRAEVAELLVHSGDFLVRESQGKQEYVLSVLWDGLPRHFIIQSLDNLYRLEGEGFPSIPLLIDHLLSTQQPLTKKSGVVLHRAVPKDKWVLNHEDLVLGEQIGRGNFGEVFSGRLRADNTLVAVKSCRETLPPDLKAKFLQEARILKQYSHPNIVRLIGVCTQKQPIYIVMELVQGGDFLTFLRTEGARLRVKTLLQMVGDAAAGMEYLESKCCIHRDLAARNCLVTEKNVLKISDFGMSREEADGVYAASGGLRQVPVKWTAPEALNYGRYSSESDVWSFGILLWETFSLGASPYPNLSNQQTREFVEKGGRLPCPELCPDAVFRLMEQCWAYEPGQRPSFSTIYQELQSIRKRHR
Chain of EPHB2 (P29323 whole entry, looked up): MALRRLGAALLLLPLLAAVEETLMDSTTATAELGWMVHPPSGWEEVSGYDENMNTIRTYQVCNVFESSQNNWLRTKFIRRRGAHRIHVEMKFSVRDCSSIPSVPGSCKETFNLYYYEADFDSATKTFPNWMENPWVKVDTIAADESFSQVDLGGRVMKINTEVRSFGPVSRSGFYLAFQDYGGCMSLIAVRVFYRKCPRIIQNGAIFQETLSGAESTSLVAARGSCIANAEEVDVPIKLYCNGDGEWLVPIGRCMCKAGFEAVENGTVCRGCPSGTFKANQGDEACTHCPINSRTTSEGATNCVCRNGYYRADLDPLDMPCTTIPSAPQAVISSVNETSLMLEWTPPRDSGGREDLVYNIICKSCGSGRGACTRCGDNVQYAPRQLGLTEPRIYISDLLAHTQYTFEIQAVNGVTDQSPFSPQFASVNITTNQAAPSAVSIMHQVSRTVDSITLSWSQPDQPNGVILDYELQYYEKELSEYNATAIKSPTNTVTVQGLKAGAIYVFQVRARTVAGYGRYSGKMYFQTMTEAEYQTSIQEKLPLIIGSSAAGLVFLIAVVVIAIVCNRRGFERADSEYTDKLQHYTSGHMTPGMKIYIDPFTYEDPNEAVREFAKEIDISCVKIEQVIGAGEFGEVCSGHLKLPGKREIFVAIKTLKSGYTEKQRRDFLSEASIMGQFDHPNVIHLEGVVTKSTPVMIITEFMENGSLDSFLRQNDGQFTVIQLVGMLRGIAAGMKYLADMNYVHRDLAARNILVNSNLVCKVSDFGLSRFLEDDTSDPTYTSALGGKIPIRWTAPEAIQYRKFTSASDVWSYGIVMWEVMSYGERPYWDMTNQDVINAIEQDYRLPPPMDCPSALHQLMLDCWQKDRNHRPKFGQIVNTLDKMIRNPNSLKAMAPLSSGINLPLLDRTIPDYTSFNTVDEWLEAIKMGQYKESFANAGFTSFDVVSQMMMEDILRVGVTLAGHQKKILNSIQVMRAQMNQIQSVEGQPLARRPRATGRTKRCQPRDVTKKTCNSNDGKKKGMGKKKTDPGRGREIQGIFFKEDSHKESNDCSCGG
Chain of Fyn (P06241 whole entry, looked up): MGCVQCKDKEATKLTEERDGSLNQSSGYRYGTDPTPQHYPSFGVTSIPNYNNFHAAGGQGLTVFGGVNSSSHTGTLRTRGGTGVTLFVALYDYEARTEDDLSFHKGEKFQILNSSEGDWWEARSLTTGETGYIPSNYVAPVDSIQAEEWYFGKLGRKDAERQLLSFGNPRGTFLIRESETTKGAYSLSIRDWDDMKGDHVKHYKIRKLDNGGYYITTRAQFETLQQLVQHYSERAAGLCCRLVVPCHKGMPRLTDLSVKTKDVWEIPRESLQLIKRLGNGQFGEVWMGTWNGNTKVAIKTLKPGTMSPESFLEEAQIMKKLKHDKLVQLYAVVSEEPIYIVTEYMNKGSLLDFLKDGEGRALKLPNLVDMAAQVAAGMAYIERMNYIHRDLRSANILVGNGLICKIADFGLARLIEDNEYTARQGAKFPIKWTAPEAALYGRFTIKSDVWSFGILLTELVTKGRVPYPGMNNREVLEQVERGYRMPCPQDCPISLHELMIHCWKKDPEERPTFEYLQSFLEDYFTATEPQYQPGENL
Chain of Grb2 SH2 (P62993 whole entry, looked up): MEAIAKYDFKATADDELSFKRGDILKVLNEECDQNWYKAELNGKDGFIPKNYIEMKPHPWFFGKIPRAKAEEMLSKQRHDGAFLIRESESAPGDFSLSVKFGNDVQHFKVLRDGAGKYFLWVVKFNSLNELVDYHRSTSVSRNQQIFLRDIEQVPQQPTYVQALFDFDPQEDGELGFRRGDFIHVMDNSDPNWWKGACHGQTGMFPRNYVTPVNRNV
Chain of MERTK (Q12866 whole entry, looked up): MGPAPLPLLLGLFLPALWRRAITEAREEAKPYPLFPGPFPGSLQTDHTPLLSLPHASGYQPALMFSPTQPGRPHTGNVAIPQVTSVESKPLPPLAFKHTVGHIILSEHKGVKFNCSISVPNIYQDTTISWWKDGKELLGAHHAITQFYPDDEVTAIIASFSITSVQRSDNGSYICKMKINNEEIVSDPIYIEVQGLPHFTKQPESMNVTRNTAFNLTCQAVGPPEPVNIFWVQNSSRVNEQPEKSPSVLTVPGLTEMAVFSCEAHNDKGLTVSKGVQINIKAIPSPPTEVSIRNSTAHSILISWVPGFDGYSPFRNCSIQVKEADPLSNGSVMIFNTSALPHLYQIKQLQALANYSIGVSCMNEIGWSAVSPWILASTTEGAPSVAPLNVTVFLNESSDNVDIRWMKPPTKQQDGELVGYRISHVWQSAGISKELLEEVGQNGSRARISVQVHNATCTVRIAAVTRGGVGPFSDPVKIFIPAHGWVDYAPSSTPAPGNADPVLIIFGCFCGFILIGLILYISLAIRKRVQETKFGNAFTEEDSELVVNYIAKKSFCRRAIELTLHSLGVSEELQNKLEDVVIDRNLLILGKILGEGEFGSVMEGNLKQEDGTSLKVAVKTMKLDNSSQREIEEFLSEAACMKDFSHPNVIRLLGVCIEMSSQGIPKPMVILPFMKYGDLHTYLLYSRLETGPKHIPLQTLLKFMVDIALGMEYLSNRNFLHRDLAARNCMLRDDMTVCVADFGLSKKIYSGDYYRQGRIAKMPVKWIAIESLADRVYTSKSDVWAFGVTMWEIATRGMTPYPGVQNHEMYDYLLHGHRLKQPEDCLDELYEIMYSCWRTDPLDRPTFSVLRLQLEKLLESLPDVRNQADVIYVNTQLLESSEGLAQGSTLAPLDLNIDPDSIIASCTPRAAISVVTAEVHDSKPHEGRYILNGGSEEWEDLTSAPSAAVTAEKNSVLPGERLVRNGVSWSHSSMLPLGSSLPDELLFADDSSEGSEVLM
Chain of Hck (P08631 whole entry, looked up): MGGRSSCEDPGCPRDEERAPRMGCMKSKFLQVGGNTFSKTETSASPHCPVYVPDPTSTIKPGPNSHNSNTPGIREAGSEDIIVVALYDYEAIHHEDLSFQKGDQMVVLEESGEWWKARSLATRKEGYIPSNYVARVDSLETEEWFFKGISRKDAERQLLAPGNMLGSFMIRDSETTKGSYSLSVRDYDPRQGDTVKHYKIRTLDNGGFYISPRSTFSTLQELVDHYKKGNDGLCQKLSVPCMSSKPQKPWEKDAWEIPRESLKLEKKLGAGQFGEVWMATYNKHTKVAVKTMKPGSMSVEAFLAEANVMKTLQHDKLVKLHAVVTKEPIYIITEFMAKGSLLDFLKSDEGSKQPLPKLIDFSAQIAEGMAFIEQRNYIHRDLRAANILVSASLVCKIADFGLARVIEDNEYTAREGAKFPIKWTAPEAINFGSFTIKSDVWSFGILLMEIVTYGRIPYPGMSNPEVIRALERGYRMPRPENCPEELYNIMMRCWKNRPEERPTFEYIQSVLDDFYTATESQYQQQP
Chain of FGFR1 (P11362 whole entry, looked up): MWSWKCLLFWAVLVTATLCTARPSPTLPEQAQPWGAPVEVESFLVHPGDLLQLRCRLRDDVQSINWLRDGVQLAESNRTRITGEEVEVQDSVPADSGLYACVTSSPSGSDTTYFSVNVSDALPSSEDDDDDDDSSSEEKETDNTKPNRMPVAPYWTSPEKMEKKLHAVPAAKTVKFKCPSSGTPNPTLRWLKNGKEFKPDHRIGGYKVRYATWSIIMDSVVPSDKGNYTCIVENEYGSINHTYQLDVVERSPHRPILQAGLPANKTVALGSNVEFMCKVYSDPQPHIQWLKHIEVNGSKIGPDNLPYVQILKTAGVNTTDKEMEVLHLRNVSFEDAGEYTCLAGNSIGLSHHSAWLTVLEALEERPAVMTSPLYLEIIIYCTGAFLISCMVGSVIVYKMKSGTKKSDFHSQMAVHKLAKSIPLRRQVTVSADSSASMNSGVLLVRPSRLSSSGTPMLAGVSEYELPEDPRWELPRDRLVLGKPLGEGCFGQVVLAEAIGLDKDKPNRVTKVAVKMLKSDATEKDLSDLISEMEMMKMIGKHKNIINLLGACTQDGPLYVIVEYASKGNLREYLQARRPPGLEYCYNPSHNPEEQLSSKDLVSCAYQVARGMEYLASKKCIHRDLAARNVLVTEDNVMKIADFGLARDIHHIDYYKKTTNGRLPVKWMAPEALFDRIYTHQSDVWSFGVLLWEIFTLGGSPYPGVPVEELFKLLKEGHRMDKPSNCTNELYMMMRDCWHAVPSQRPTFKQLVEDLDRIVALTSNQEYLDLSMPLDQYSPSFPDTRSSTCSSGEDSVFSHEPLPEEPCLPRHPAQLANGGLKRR

| Sequence | phosphorylation enrichment (FGFR1) | phosphorylation enrichment (Jak2) | phosphorylation enrichment (FGFR3) | phosphorylation enrichment (c-Src) | phosphorylation enrichment (EPHB2) | phosphorylation enrichment (Hck) | phosphorylation enrichment (MERTK) | phosphorylation enrichment (c-Abl (mouse)) | phosphorylation enrichment (Fer (mouse)) | phosphorylation enrichment (Fyn) | phosphorylation enrichment (EPHB1) | phosphorylation enrichment (AncSZ) | phosphorylation enrichment (Fes) | SH2 binding enrichment (Grb2 SH2) | SH2 binding enrichment (SHP2-C SH2) | SH2 binding enrichment (c-Src SH2) |
| --- | --- | --- | --- | --- | --- | --- | --- | --- | --- | --- | --- | --- | --- | --- | --- | --- |
| NFSKMYCNPDA [KNL1_Y489_A486S_YF] | 0.46 | 0.894 | 0.802 | 0.426 | 0.613 | 0.488 | 0.524 | 0.699 | 0.563 | 0.486 | 0.562 | 0.94 | 0.924 | 0.751 | 0.619 | 2.54 |
| NGPDVYVLPVT [AATK_Y93_L97V] | 0.72 | 0.837 | 0.751 | 1.2 | 0.644 | 0.776 | 2.73 | 0.787 | 0.453 | 2.25 | 0.723 | 1.79 | 1.05 | 0.902 | 0.617 | 0.594 |
| NGQAVYAACQT [XDH_Y1092] | 0.506 | 0.378 | 0.371 | 3.51 | 2.2 | 4.26 | 1.64 | 3.5 | 2.4 | 4.76 | 2.24 | 0.545 | 0.706 | 0.685 | 0.618 | 0.427 |
| NHRNQYQALKP [CLSPN_Y887] | 0.351 | 0.463 | 0.438 | 0.404 | 0.377 | 0.504 | 0.531 | 0.476 | 0.356 | 0.335 | 0.375 | 0.739 | 0.534 | 1.06 | 1.05 | 0.915 |
| NIRKKYFRAIL [CHD7_Y1217_Q1214R_YF] | 0.48 | 0.496 | 0.546 | 0.504 | 0.6 | 0.451 | 0.555 | 0.633 | 0.394 | 0.45 | 0.466 | 0.583 | 0.661 | 0.764 | 0.544 | 0.356 |
| NLVSEYQQYQD [TUBB3_Y422_D417N] | 0.531 | 0.968 | 0.726 | 0.541 | 0.693 | 0.606 | 0.44 | 0.679 | 0.508 | 0.592 | 0.582 | 1.37 | 1.05 | 0.831 | 0.698 | 0.673 |
| NMRSTYAKLAA [SEC22B_Y193_H190R] | 0.359 | 0.587 | 0.403 | 0.444 | 0.397 | 0.456 | 0.49 | 0.453 | 0.439 | 0.407 | 0.373 | 0.563 | 0.561 | 0.636 | 9.73 | 1.67 |
| NNIDFYKKTTN [FGFR2_Y657_YF] | 0.338 | 0.722 | 0.467 | 0.422 | 0.397 | 0.435 | 0.364 | 0.498 | 0.388 | 0.393 | 0.639 | 0.637 | 0.695 | 0.729 | 0.45 | 0.515 |
| NPPGMYPVTGP [LPP_Y346] | 0.394 | 0.482 | 0.396 | 0.389 | 0.325 | 0.375 | 0.348 | 0.506 | 0.649 | 0.336 | 0.375 | 0.649 | 0.531 | 0.638 | 0.547 | 0.418 |
| NPQKSYFIRLY [WAS_Y83] | 0.486 | 1.07 | 0.745 | 0.349 | 0.637 | 0.452 | 0.353 | 0.724 | 0.542 | 0.372 | 0.61 | 1.16 | 1.15 | 1.06 | 0.937 | 0.517 |
| NRSSLYLVAGP [KIAA1614_Y1083] | 0.556 | 0.698 | 0.607 | 0.434 | 0.517 | 0.619 | 1.09 | 0.642 | 0.495 | 0.534 | 0.591 | 0.915 | 0.91 | 0.756 | 0.92 | 0.543 |
| NRVEIYDKTVE [CYFIP1_Y108_E109D] | 0.534 | 0.755 | 0.519 | 0.47 | 0.521 | 0.682 | 0.4 | 0.576 | 0.435 | 0.443 | 0.495 | 0.905 | 0.938 | 1.15 | 0.504 | 0.798 |
| NTADFYDLFGG [PTPN11_Y63_G60A_YF] | 0.515 | 1.2 | 0.608 | 4.45 | 0.591 | 3.02 | 2.3 | 0.8 | 1.6 | 4.53 | 0.628 | 0.993 | 1.12 | 0.847 | 0.785 | 0.55 |
| NTFEKYLGEEF [TF_Y669_YF] | 0.509 | 0.922 | 0.75 | 0.429 | 0.572 | 0.479 | 0.379 | 0.641 | 0.491 | 0.454 | 0.587 | 1.08 | 1.21 | 0.667 | 0.656 | 0.378 |
| NTGDDYDLFGG [PTPN11_Y63_Y62D_YF] | 0.546 | 1.05 | 0.652 | 1.02 | 0.608 | 0.618 | 0.412 | 0.826 | 0.623 | 0.722 | 0.586 | 1.42 | 1.21 | 0.666 | 0.439 | 0.376 |
| NTGDDYDLYGG [PTPN11_Y63_Y62D] | 0.51 | 0.912 | 0.683 | 1.65 | 1.05 | 2.47 | 0.494 | 0.684 | 0.775 | 1.51 | 0.581 | 1.33 | 1.17 | 0.804 | 0.521 | 0.522 |
